Measurements reported in article PMC9941103.
Values joined by “and” are separate entries in the source; they are usually repeats but may differ in a detail not shown here. Identical values can stand only once.

Tests used:
[1] = target: SNAP25(CtoS), cysteine-free variant of SNAP25 (UniProt P60881); experiment: cross-linking; 10 µM of one protein alone, 0-1.5 mM BS3, 1 h at 25 °C; gel electrophoresis, Coomassie staining and western blot
[2] = target: Synaptobrevin-2 variant lacking the transmembrane helix, Syb(1-96) (UniProt P63045); experiment: native MS; SNAP25 and Synaptobrevin-2 mixed 1:1; 200 mM ammonium acetate; conditions: scale: SNAP25 per Synaptobrevin-2
UniProt P63045, sequence (P63045 1-96, change not shown): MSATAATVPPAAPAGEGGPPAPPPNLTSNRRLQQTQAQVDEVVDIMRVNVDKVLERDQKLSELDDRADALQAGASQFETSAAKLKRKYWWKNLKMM

[3] = target: SNAP25(CtoS), cysteine-free variant of SNAP25 (UniProt P60881); experiment: native MS; 10 µM of one protein alone, 200 mM ammonium acetate
[4] = target: Synaptobrevin-2 variant lacking the transmembrane helix, Syb(1-96) (UniProt P63045); experiment: native MS; SNAP25 and Synaptobrevin-2 mixed 1:2 and 2:1; conditions: scale: SNAP25 per Synaptobrevin-2
[5] = target: pre-assembled binary SNAP25:Synaptobrevin-2 complex (2:1) (UniProt P60881); experiment: native MS; SNAP25 and Synaptobrevin-2 mixed 1:1; 200 mM ammonium acetate
[6] = target: T1, full-length Complexin-1, P63041; experiment: native MS; 10 µM of one protein alone, 200 mM ammonium acetate; conditions: remark: other sources report otherwise
T1 chain: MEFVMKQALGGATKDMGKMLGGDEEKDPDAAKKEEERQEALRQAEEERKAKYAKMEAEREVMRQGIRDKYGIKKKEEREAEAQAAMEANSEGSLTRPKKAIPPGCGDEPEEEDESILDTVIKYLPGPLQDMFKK

Molecule: SNAP25(CtoS), cysteine-free variant of SNAP25 (from UniProt P60881 1-206)
- stoichiometry N [1]: < 5

Molecule: SNAP25(CtoS), cysteine-free variant of SNAP25 (from UniProt P60881 1-206) (natural protein)
- stoichiometry N [2]: 2
- stoichiometry N [3]: 2 and 3
- stoichiometry N [4]: 2

Molecule: pre-assembled binary SNAP25:Synaptobrevin-2 complex (2:1) (from UniProt P60881 1-206; P63045 1-96)
- stoichiometry N [5]: 2

B1: full-length Complexin-1, P63041 1-134 (natural protein)
chain: T1 chain
- stoichiometry N [6]: 2 and 3
